# Groups on a side chain read outwards from the residue.
# T1: H3(E5)2 branched peptide (not fully specified)
# T1 chain: Ac-EEEEEGGK([Gly-Gly-Kme3‑VGGTAPAS])GGEEEEE-NH2
# B1: PSIP1 (LEDGF) PWWP domain PWWP (protein)
# chain: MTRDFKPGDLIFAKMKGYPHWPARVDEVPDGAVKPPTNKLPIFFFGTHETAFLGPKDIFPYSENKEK
# Molecular target: T1, H3(E5)2 branched peptide
# Assay: NMR titration
binder,measurement,value
B1,Kd,360 µM

# Source: publication PMC7662849 (2020)
